Each block holds one binder with its values, some of them ahead of it.
Molecular target: Ubiquitin (UniProt P0CG47 1-76)
Test: ITC

Kd: 319 µM
B1: CYLD CAP-Gly3 (aa 460-582) (domain or fragment)
chain: LAMPPGNSHGLEVGSLAEVKENPPFYGVIRWIGQPPGLNEVLAGLELEDECAGCTDGTFRGTRYFTCALKKALFVKLKSCRPDSRFASLQPVSNQIERCNSLAFGGYLSEVVEENTPPKMEKE

Kd: 136 µM
B2: CYLD CAP-Gly2 (aa 226-313) (domain or fragment)
chain: ELPPLEINSRVSLKVGETIESGTVIFCDVLPGKESLGYFVGVDMDNPIGNWDGRFDGVQLCSFACVESTILLHINDIIPALSESVTQE

Reference: paper PMC8511506 (2021)
